Experimental data reported in US20250011363A1, “OPTIMIZED SHORTENED PEPTIDE THAT BINDS TO ACETYLCHOLINE RECEPTOR, AND USE THEREOF” (SKINMED CO., LTD., priority 2021, published 2025).

B1: 6mer-2-299 (peptide)
peptide: RWYYRK
B2: 6mer-2-298 (peptide)
peptide: KWICKK
B3: 6mer-2-304 (peptide)
peptide: KWFYRK
B4: 6mer-2-325 (peptide)
peptide: RVFSRK
B5: 6mer-2-303 (peptide)
peptide: KVFTKR
B6: 5mer-249 (peptide)
peptide: RSYCR
B7: 6mer-2-291 (peptide)
peptide: RRYRKR
B8: 6mer-2-309 (peptide)
peptide: KRRRRR
B9: 5mer-255 (peptide)
peptide: KQRTR
B10: 6mer-2-327 (peptide)
peptide: KGLRKR
B11: 6mer-2-331 (peptide)
peptide: RWVSKK
B12: 5mer-550 (peptide)
peptide: RQQSR
B13: 6mer-2-288 (peptide)
peptide: KSRLRK
B14: 6mer-2-323 (peptide)
peptide: KVLLRK
B15: 6mer-2-295 (peptide)
peptide: KVRYKK
B16: 6mer-2-334 (peptide)
peptide: KVILRR
B17: 6mer-2-302 (peptide)
peptide: KQICKK
B18: 5mer-256 (peptide)
peptide: RGVCK
B19: 6mer-2-274 (peptide)
peptide: KLRTKR
B20: 6mer-2-329 (peptide)
peptide: RVYTKR
B21: 6mer-2-292 (peptide)
peptide: RQLCKR
B22: 6mer-2-310 (peptide)
peptide: KLFQRK
B23: 6mer-2-285 (peptide)
peptide: RRIQRR
B24: 6mer-2-314 (peptide)
peptide: KQYCKK
B25: 6mer-2-296 (peptide)
peptide: KWYRRK
B26: 6mer-2-280 (peptide)
peptide: KSIYRR
B27: 6mer-2-287 (peptide)
peptide: RLYLKR
B28: 6mer-2-297 (peptide)
peptide: RSLSRR
B29: 6mer-2-306 (peptide)
peptide: RQFQKR
B30: 6mer-2-286 (peptide)
peptide: KRRYKK
B31: 6mer-2-300 (peptide)
peptide: RWRLKK
B32: 5mer-554 (peptide)
peptide: RLLSK
B33: 6mer-2-320 (peptide)
peptide: RQYRRK
B34: 6mer-2-278 (peptide)
peptide: RQIQKK
B35: 6mer-2-324 (peptide)
peptide: KLQSRK
B36: 6mer-2-312 (peptide)
peptide: KWRTKR
B37: 5mer-551 (peptide)
peptide: RWQYR
B38: 6mer-2-319 (peptide)
peptide: RSRQRK
B39: 6mer-2-272 (peptide)
peptide: KWRSRK
B40: 6mer-2-330 (peptide)
peptide: KQLRKK
B41: 6mer-2-311 (peptide)
peptide: KVVTRK
B42: 6mer-2-301 (peptide)
peptide: RQVRKR
B43: 6mer-2-290 (peptide)
peptide: RQLYRK
B44: 6mer-2-275 (peptide)
peptide: KLITRR
B45: 6mer-2-328 (peptide)
peptide: KRYQRK
B46: 6mer-2-273 (peptide)
peptide: KLRQRR
B47: 6mer-2-284 (peptide)
peptide: KLRSKR
B48: 6mer-2-289 (peptide)
peptide: RLLQKK
B49: 6mer-2-283 (peptide)
peptide: KLISKR
B50: 5mer-257 (peptide)
peptide: RQFTR
B51: 6mer-2-294 (peptide)
peptide: KLYYRR
B52: 5mer-553 (peptide)
peptide: KLLSR
B53: 6mer-2-313 (peptide)
peptide: RWRTKR
B54: 5mer-254 (peptide)
peptide: KLLRK
B55: 5mer-549 (peptide)
peptide: KWITK
B56: 6mer-2-326 (peptide)
peptide: RGFYKK
B57: 6mer-2-307 (peptide)
peptide: RLRSKK
B58: 6mer-2-293 (peptide)
peptide: KQQSKR
B59: 6mer-2-308 (peptide)
peptide: KGISKR
B60: 6mer-2-279 (peptide)
peptide: KSLQRK
B61: 6mer-2-276 (peptide)
peptide: RLVCRK
B62: 5mer-552 (peptide)
peptide: RLYSR
B63: 6mer-2-318 (peptide)
peptide: RGIQKK
B64: 6mer-2-315 (peptide)
peptide: RRQRRR
B65: 5mer-253 (peptide)
peptide: RSLYR
B66: 5mer-252 (peptide)
peptide: KQYRK
B67: 6mer-2-316 (peptide)
peptide: KGIRRR
B68: 6mer-2-305 (peptide)
peptide: KQFYKK
B69: 6mer-2-322 (peptide)
peptide: RRYSRR
B70: 6mer-2-317 (peptide)
peptide: RGLYKR
B71: 5mer-555 (peptide)
peptide: KVQCK
B72: 6mer-2-321 (peptide)
peptide: KLVSRK
B73: 6mer-2-282 (peptide)
peptide: RQQYRK
B74: 6mer-2-333 (peptide)
peptide: KRFRRK
B75: 6mer-2-332 (peptide)
peptide: RRQYKK
B76: 5mer-251 (peptide)
peptide: KRISK
B77: 6mer-2-277 (peptide)
peptide: RLRYRK
B78: 5mer-556 (peptide)
peptide: RVIYK
B79: 5mer-250 (peptide)
peptide: RQFSR
B80: 6mer-2-281 (peptide)
peptide: KGQRKK

Each binder was assayed against acetylcholine receptor (assay: SPR, AchR immobilised on chip, peptide at 10 uM).

**Q.** For B1, which Binding affinity is on record?
**A.** 141 RU

**Q.** B2 was tested. Which Binding affinity did it give?
**A.** 149 RU

**Q.** B3 was tested. Which Binding affinity did it give?
**A.** 144 RU

**Q.** How did the Binding affinity turn out when B4 was run?
**A.** 142 RU

**Q.** Which Binding affinity does the source give for B5 here?
**A.** 126 RU

**Q.** Which Binding affinity (RU) does the source give for B6 here?
**A.** 52 RU

**Q.** For B7, which Binding affinity is on record?
**A.** 154 RU

**Q.** For B8, which Binding affinity is on record?
**A.** 151 RU

**Q.** B9 was tested. Which Binding affinity (RU) did it give?
**A.** 82 RU

**Q.** Which Binding affinity does the source give for B10 here?
**A.** 153 RU

**Q.** For B11, which Binding affinity is on record?
**A.** 148 RU

**Q.** How did the Binding affinity (RU) turn out when B12 was run?
**A.** 83 RU

**Q.** For B13, which Binding affinity is on record?
**A.** 122 RU

**Q.** With B14 as the binder, how does the Binding affinity read?
**A.** 145 RU

**Q.** With B15 as the binder, how does the Binding affinity read?
**A.** 145 RU

**Q.** With B16 as the binder, how does the Binding affinity read?
**A.** 146 RU

**Q.** Which Binding affinity does the source give for B17 here?
**A.** 148 RU

**Q.** With B18 as the binder, how does the Binding affinity (RU) read?
**A.** 60 RU

**Q.** How did the Binding affinity turn out when B19 was run?
**A.** 148 RU

**Q.** How did the Binding affinity turn out when B20 was run?
**A.** 142 RU

**Q.** How did the Binding affinity turn out when B21 was run?
**A.** 121 RU

**Q.** With B22 as the binder, how does the Binding affinity read?
**A.** 149 RU

**Q.** For B23, which Binding affinity is on record?
**A.** 142 RU

**Q.** How did the Binding affinity turn out when B24 was run?
**A.** 127 RU

**Q.** With B25 as the binder, how does the Binding affinity read?
**A.** 135 RU

**Q.** With B26 as the binder, how does the Binding affinity read?
**A.** 153 RU

**Q.** With B27 as the binder, how does the Binding affinity read?
**A.** 124 RU

**Q.** How did the Binding affinity turn out when B28 was run?
**A.** 139 RU

**Q.** B29 was tested. Which Binding affinity did it give?
**A.** 141 RU

**Q.** B30 was tested. Which Binding affinity did it give?
**A.** 139 RU

**Q.** How did the Binding affinity turn out when B31 was run?
**A.** 153 RU

**Q.** With B32 as the binder, how does the Binding affinity (RU) read?
**A.** 65 RU

**Q.** How did the Binding affinity turn out when B33 was run?
**A.** 148 RU

**Q.** B34 was tested. Which Binding affinity did it give?
**A.** 135 RU

**Q.** B35 was tested. Which Binding affinity did it give?
**A.** 139 RU

**Q.** For B36, which Binding affinity is on record?
**A.** 121 RU

**Q.** For B37, which Binding affinity (RU) is on record?
**A.** 59 RU

**Q.** Which Binding affinity does the source give for B38 here?
**A.** 137 RU

**Q.** With B39 as the binder, how does the Binding affinity read?
**A.** 154 RU

**Q.** For B40, which Binding affinity is on record?
**A.** 139 RU

**Q.** With B41 as the binder, how does the Binding affinity read?
**A.** 147 RU

**Q.** For B42, which Binding affinity is on record?
**A.** 122 RU

**Q.** Which Binding affinity does the source give for B43 here?
**A.** 135 RU

**Q.** For B44, which Binding affinity is on record?
**A.** 135 RU

**Q.** Which Binding affinity does the source give for B45 here?
**A.** 131 RU

**Q.** Which Binding affinity does the source give for B46 here?
**A.** 131 RU

**Q.** How did the Binding affinity turn out when B47 was run?
**A.** 151 RU

**Q.** For B48, which Binding affinity is on record?
**A.** 146 RU

**Q.** B49 was tested. Which Binding affinity did it give?
**A.** 148 RU

**Q.** With B50 as the binder, how does the Binding affinity (RU) read?
**A.** 85 RU

**Q.** For B51, which Binding affinity is on record?
**A.** 135 RU

**Q.** Which Binding affinity (RU) does the source give for B52 here?
**A.** 72 RU

**Q.** With B53 as the binder, how does the Binding affinity read?
**A.** 154 RU

**Q.** How did the Binding affinity (RU) turn out when B54 was run?
**A.** 87 RU

**Q.** With B55 as the binder, how does the SPR binding response read?
**A.** 78 RU

**Q.** How did the Binding affinity turn out when B56 was run?
**A.** 142 RU

**Q.** For B57, which Binding affinity is on record?
**A.** 141 RU

**Q.** For B58, which Binding affinity is on record?
**A.** 153 RU

**Q.** Which Binding affinity does the source give for B59 here?
**A.** 148 RU

**Q.** B60 was tested. Which Binding affinity did it give?
**A.** 148 RU

**Q.** For B61, which Binding affinity is on record?
**A.** 153 RU

**Q.** With B62 as the binder, how does the Binding affinity (RU) read?
**A.** 63 RU

**Q.** B63 was tested. Which Binding affinity did it give?
**A.** 145 RU

**Q.** With B64 as the binder, how does the Binding affinity read?
**A.** 139 RU

**Q.** How did the Binding affinity (RU) turn out when B65 was run?
**A.** 75 RU

**Q.** For B66, which Binding affinity (RU) is on record?
**A.** 53 RU

**Q.** With B67 as the binder, how does the Binding affinity read?
**A.** 139 RU

**Q.** For B68, which Binding affinity is on record?
**A.** 154 RU

**Q.** B69 was tested. Which Binding affinity did it give?
**A.** 148 RU

**Q.** How did the Binding affinity turn out when B70 was run?
**A.** 135 RU

**Q.** With B71 as the binder, how does the Binding affinity (RU) read?
**A.** 71 RU

**Q.** Which Binding affinity does the source give for B72 here?
**A.** 139 RU

**Q.** Which Binding affinity does the source give for B73 here?
**A.** 151 RU

**Q.** How did the Binding affinity turn out when B74 was run?
**A.** 139 RU

**Q.** With B75 as the binder, how does the Binding affinity read?
**A.** 145 RU

**Q.** Which Binding affinity (RU) does the source give for B76 here?
**A.** 70 RU

**Q.** With B77 as the binder, how does the Binding affinity read?
**A.** 128 RU

**Q.** How did the Binding affinity (RU) turn out when B78 was run?
**A.** 52 RU

**Q.** How did the Binding affinity (RU) turn out when B79 was run?
**A.** 76 RU

**Q.** Which Binding affinity does the source give for B80 here?
**A.** 149 RU
